Test results taken from article PMC11791991 (2024).
Ends that are not written are not given here.

Molecular target: T1, LZ-Y
T1 chain: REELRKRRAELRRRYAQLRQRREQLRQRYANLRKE
Test: QRET time-resolved luminescence

- Kd: 21 nM
B1: EuLZ (leucine zipper peptide LZ, Eu-chelate labeled) (peptide)
chain: KDTLQAETDQLEDEKSALQTEIANLLKEKEKLEFIL
modifications: also: nonadentate Eu(III) chelate label, position not given here
